These results are taken from patent US20250197473A1.

Where two headings read alike, the source gives them in different places.

What all share (experiment): ELISA
The target in assay [1] is CTLA-4.
The target of assay [2] is PD-1.
Assay [3] has as its target CTLA-4. This is another data set of the same source.
The target in assay [4] is PD-1. This is another data set of the same source.

On to “PD-L2 domain only plus Fc construct (Fc fusion)”, for which the CLTA-4 Relative Binding in the assay with CTLA-4 [1] was found to be 0.008. This substance showed a PD-1 Relative Binding in the assay with PD-1 [2] of 1.77.

As to “PD-L2/B7.1 Dual Checkpoint (dual checkpoint inhibitor composition comprising, from the N-terminus to the C-terminus, a PD-L2 domain linked to a B7.1 domain plus a Fc domain) (Fc fusion)”, the CLTA-4 Relative Binding with CTLA-4 [3] came out at 0.266; in the assay with CTLA-4 [1] it was 1.65. Also, the PD-1 Relative Binding with PD-1 [4] was found to be 0.088; in the assay with PD-1 [2], 3.37.

With “B7.1 domain only plus Fc construct (Fc fusion)”, the CLTA-4 Relative Binding with CTLA-4 [3] was 0.236; with CTLA-4 [1], 3.26. For the same substance, the PD-1 Relative Binding amounted to 0 in the assay with PD-1 [4] and 0.004 with PD-1 [2].

Regarding “B7.1/PD-L2 composition (a B7.1 domain linked to a PD-L2 domain plus an Fc domain) (Fc fusion)”, the CLTA-4 Relative Binding with CTLA-4 [3] was determined as 0.548. The substance further registered a PD-1 Relative Binding in the assay with PD-1 [4] of 0.
